Source: patent US20250255902A1 (published 2025)

Assays:
Assay in all cases: BLI
TEA1-E8 = target: TEA1-E8
Gly3-2-C1 = target: Gly3-2-C1
Gly2-1-F2 = target: Gly2-1-F2
Gly1-2-D4 = target: Gly1-2-D4

Kd (TEA1-E8): 0.166 nM
Kd (Gly3-2-C1): 4.88 nM
Kd (Gly2-1-F2): < 0.001 nM
Kd (Gly1-2-D4): 4.46 nM
B1: MSLN (other)
chain: EVEKTACPSGKKAREIDESLIFYKKWELEACVDAALLATQMDRVNAIPFTYEQLDVLKHKLDELYPQGYPESVIQHLGYLFLKMSPEDIRKWNVTSLETLKALLEVNKGHEMSPQVATLIDRFVKGRGQLDKDTLDTLTAFYPGYLCSLSPEELSSVPPSSIWAVRPQDLDTCDPRQLDVLYPKARLAFQNMNGSEYFVKIQSFLGGAPTEDLKALSQQNVSMDLATFMKLRTDAVLPLTVAEVQKLLGPHVEGLKAEERHRPVRDWILRQRQDDLDTLGLGLQG
